Measurements as given in paper PMC3739785, “A Primate Specific Extra Domain in the Molecular Chaperone Hsp90” (PLoS ONE, 2013).

Key:
human Hsp103 = target: T1, human Hsp103 (human, UniProt P07900-2 1-854); test: SEC; chaperone and cochaperone at 2.5 µM, 10 min at 30°C following 10 min on ice, 40 mM Hepes-KOH pH 7.4, 50 mM KCl, 2 mM Mg2Cl; Superdex 200 HR 10/30 in the same buffer; fractions analysed by SDS-PAGE (Western blot for Aha1 and Cdc37 in the Hsp103 runs); shift of the cochaperone to higher molecular mass; conditions: both partners purified
T1 construct: human Hsp103, the isoform of Hsp90α with an additional 122 aa (E domain) at the N-terminus; printed length 854 aa (also printed as 852 aa for Hsp90AA1-2); also called Hsp90AA1-2; Hsp90α with extra E domain

human Hsp90α = target: T2, human Hsp90α (human, UniProt P07900-1 1-732); test: as above; conditions: both partners purified
T2 construct: human Hsp90α (Hsp90AA1-1), canonical isoform, 732 aa as printed; also called Hsp90AA1-1; heat shock protein 90

B1: human Cdc37 (natural protein, UniProt Q16543 1-378, looked up)
chain: MVDYSVWDHIEVSDDEDETHPNIDTASLFRWRHQARVERMEQFQKEKEELDRGCRECKRKVAECQRKLKELEVAEGGKAELERLQAEAQQLRKEERSWEQKLEEMRKKEKSMPWNVDTLSKDGFSKSMVNTKPEKTEEDSEEVREQKHKTFVEKYEKQIKHFGMLRRWDDSQKYLSDNVHLVCEETANYLVIWCIDLEVEEKCALMEQVAHQTIVMQFILELAKSLKVDPRACFRQFFTKIKTADRQYMEGFNDELEAFKERVRGRAKLRIEKAMKEYEEEERKKRLGPGGLDPVEVYESLPEELQKCFDVKDVQMLQDAISKMDPTDAKYHMQRCIDSGLWVPNSKASEAKEGEEAGPGDPLLEAVPKTGDEKDVSV
notes: human Cdc37, cochaperone of Hsp90
- binding result (human Hsp103): binds
- binding result (human Hsp90α): binds
